Experimental data from patent publication US20110300138A1 (published 2011).

Assays:
Assay in all cases: cell-based or functional assay
[1] = molecular target: TSHR with Asp43 mutated to Ala, expressed in CHO cells (human) (UniProt P16473)
[2] = molecular target: wild type human TSHR (full length) expressed in CHO cells (human) (UniProt P16473)
[3] = molecular target: TSHR with Lys129 mutated to Ala, expressed in CHO cells (human) (UniProt P16473)
[4] = molecular target: TSHR with Asp203 mutated to Ala expressed in CHO cells (human) (UniProt P16473)
[5] = molecular target: TSHR with Arg80 mutated to Ala expressed in CHO cells (human) (UniProt P16473)
[6] = molecular target: wild type TSHR expressed in CHO cells (human) (UniProt P16473)

In the case of TSH (ligand), the % inhibition of TSH stimulation, TSH (2) run at the end of assay, mutated TSHR [1] is reported as 0%, the Cyclic AMP produced (pmol/mL), TSH (2) 3 ng/mL run at the end of assay, mutated TSHR [1] is reported as 60.3 pmol/mL and the Mutated/Wild type (%) of cyclic AMP produced, TSH 0.01 ng/mL [1] is reported as 100%. For the same substance, the Mutated/Wild type (%) of cyclic AMP produced, TSH 0.03 ng/mL [1] was 113%, the Mutated/Wild type (%) of cyclic AMP produced, TSH 0.1 ng/mL [1] was 119% and the Mutated/Wild type (%) of cyclic AMP produced, TSH 0.3 ng/mL [1] was 86%. The Mutated/Wild type (%) of cyclic AMP produced, TSH 1 ng/mL [1] was 86%, the Mutated/wild type (%) of cyclic AMP produced; TSH 3 ng/mL [1] was 88% and the Mutated/wild type (%), TSH (2) 3 ng/mL run at the end of assay [1] was 65%. It also gave a % inhibition of TSH stimulation, TSH (2) run at the end of assay, wild type TSHR [2] of 2%, a Cyclic AMP produced (pmol/mL), TSH 0.01 ng/mL, wild type TSHR [2] of 2.03 pmol/mL and a Cyclic AMP produced (pmol/mL), TSH 0.03 ng/mL, wild type TSHR [2] of 3.65 pmol/mL. For the same substance, the Cyclic AMP produced (pmol/mL), TSH 0.1 ng/mL, wild type TSHR [2] was 9.65 pmol/mL, the Cyclic AMP produced (pmol/mL), TSH 0.3 ng/mL, wild type TSHR [2] was 31.4 pmol/mL and the Cyclic AMP produced (pmol/mL), TSH 1 ng/mL, wild type TSHR [2] was 61 pmol/mL. The Cyclic AMP produced (pmol/mL), TSH 3 ng/mL alone, wild type TSHR [2] was 93.9 pmol/mL, the Cyclic AMP produced (pmol/mL), TSH 3 ng/mL, wild type TSHR [2] was 82.6 pmol/mL and the Cyclic AMP produced (pmol/mL), TSH (2) 3 ng/mL run at the end of assay, wild type TSHR [2] was 92.2 pmol/mL. It also gave a Cyclic AMP produced, TSH 0.01 ng/mL [2] of 4 pmol/mL, a Cyclic AMP produced, TSH 0.01 ng/mL, Experiment 1 [2] of 1.09 pmol/mL and a Cyclic AMP produced, TSH 0.01 ng/mL, Experiment 2 [2] of 1.93 pmol/mL. The Cyclic AMP produced, TSH 0.03 ng/mL [2] was 6.66 pmol/mL, the Cyclic AMP produced, TSH 0.03 ng/mL, Experiment 1 [2] was 2.31 pmol/mL and the Cyclic AMP produced, TSH 0.03 ng/mL, Experiment 2 [2] was 2.75 pmol/mL. For the same substance, the Cyclic AMP produced, TSH 0.1 ng/mL [2] was 19.7 pmol/mL, the Cyclic AMP produced, TSH 0.1 ng/mL, Experiment 1 [2] was 6.54 pmol/mL and the Cyclic AMP produced, TSH 0.1 ng/mL, Experiment 2 [2] was 7.25 pmol/mL. For the same substance, the Cyclic AMP produced, TSH 0.3 ng/mL [2] was 45 pmol/mL, the Cyclic AMP produced, TSH 0.3 ng/mL, Experiment 1 [2] was 26.5 pmol/mL and the Cyclic AMP produced, TSH 0.3 ng/mL, Experiment 2 [2] was 25.3 pmol/mL. It also gave a Cyclic AMP produced, TSH 1 ng/mL [2] of 75.7 pmol/mL, a Cyclic AMP produced, TSH 1 ng/mL, Experiment 1 [2] of 67.7 pmol/mL and a Cyclic AMP produced, TSH 1 ng/mL, Experiment 2 [2] of 51 pmol/mL. The Cyclic AMP produced, TSH 3 ng/mL, Experiment 1 (mean of duplicate) [2] was 83.5 pmol/mL, the Cyclic AMP produced; TSH 3 ng/mL [2] was 87.2 pmol/mL and the Cyclic AMP produced; TSH 3 ng/mL; Experiment 2 [2] was 69.7 pmol/mL. For the same substance, the % inhibition of TSH stimulation; TSH (2) control [3] was 3%, the Cyclic AMP produced; TSH 3 ng/mL [3] was 49.2 pmol/mL and the Cyclic AMP produced; TSH (2) [3] was 47.9 pmol/mL. The Mutated/wild type (%) of cyclic AMP produced; TSH 3 ng/mL [3] was 98%, the Mutated/wild type (%) of cyclic AMP produced; TSH (2) [3] was 90% and the Cyclic AMP produced (pmol/mL), 0.01 ng/mL TSH [4] was 5.3 pmol/mL. For the same substance, the Cyclic AMP produced (pmol/mL), 0.03 ng/mL TSH [4] was 7.13 pmol/mL, the Cyclic AMP produced (pmol/mL), 0.1 ng/mL TSH [4] was 13 pmol/mL and the Cyclic AMP produced (pmol/mL), 0.3 ng/mL TSH [4] was 33.8 pmol/mL. It also gave a Cyclic AMP produced (pmol/mL), 1 ng/mL TSH [4] of 58.6 pmol/mL, a Cyclic AMP produced (pmol/mL), 3 ng/mL TSH [4] of 69.3 pmol/mL and a Mutated/Wild type (%) of cyclic AMP produced, 0.01 ng/mL TSH [4] of 231%. The Mutated/Wild type (%) of cyclic AMP produced, 0.03 ng/mL TSH [4] was 200%, the Mutated/Wild type (%) of cyclic AMP produced, 0.1 ng/mL TSH [4] was 154% and the Mutated/Wild type (%) of cyclic AMP produced, 0.3 ng/mL TSH [4] was 128%. The Mutated/Wild type (%) of cyclic AMP produced, 1 ng/mL TSH [4] was 89%, the Mutated/Wild type (%) of cyclic AMP produced, 3 ng/mL TSH [4] was 90% and the % inhibition of TSH stimulation; TSH (2) [5] was 16%. It also gave a Cyclic AMP produced; TSH 3 ng/mL [5] of 105 pmol/mL, a Cyclic AMP produced; TSH (2) [5] of 88.2 pmol/mL and a Mutated/wild type (%) of cyclic AMP produced; TSH 3 ng/mL [5] of 124%. It also gave a Mutated/wild type (%) of cyclic AMP produced; TSH (2) [5] of 94%, a % inhibition of TSH stimulation, wild type TSHR; TSH (2) (run at the end of assay) [6] of 0% and a % inhibition of TSH stimulation; TSH (2) [6] of 0%. It also gave a % inhibition of TSH stimulation; TSH (2) (run at the end of assay, against the first TSH sample); Experiment 1 [6] of 0%, a % inhibition of TSH stimulation; TSH (2) (run at the end of assay, against the first TSH sample); Experiment 2 [6] of 0% and a % inhibition of TSH stimulation; TSH (2), run at the end of assay [6] of 0.2%. For the same substance, the % inhibition of TSH stimulation; TSH (2); Experiment 1 [6] was 0%, the % inhibition of TSH stimulation; TSH (2); Experiment 2 [6] was 0% and the Cyclic AMP produced (pmol/mL), 0.01 ng/mL TSH [6] was 2.29 pmol/mL. For the same substance, the Cyclic AMP produced (pmol/mL), 0.01 ng/mL TSH, Experiment 1 [6] was 1.8 pmol/mL, the Cyclic AMP produced (pmol/mL), 0.01 ng/mL TSH, Experiment 2 [6] was 1.3 pmol/mL and the Cyclic AMP produced (pmol/mL), 0.03 ng/mL TSH [6] was 3.56 pmol/mL. For the same substance, the Cyclic AMP produced (pmol/mL), 0.03 ng/mL TSH, Experiment 1 [6] was 3.91 pmol/mL, the Cyclic AMP produced (pmol/mL), 0.03 ng/mL TSH, Experiment 2 [6] was 3 pmol/mL and the Cyclic AMP produced (pmol/mL), 0.1 ng/mL TSH [6] was 8.45 pmol/mL. The Cyclic AMP produced (pmol/mL), 0.1 ng/mL TSH, Experiment 1 [6] was 8.92 pmol/mL, the Cyclic AMP produced (pmol/mL), 0.1 ng/mL TSH, Experiment 2 [6] was 6.69 pmol/mL and the Cyclic AMP produced (pmol/mL), 0.3 ng/mL TSH [6] was 26.3 pmol/mL. For the same substance, the Cyclic AMP produced (pmol/mL), 0.3 ng/mL TSH, Experiment 1 [6] was 33 pmol/mL, the Cyclic AMP produced (pmol/mL), 0.3 ng/mL TSH, Experiment 2 [6] was 26.2 pmol/mL and the Cyclic AMP produced (pmol/mL), 1 ng/mL TSH [6] was 65.7 pmol/mL. For the same substance, the Cyclic AMP produced (pmol/mL), 1 ng/mL TSH, Experiment 1 [6] was 76.1 pmol/mL, the Cyclic AMP produced (pmol/mL), 1 ng/mL TSH, Experiment 2 [6] was 68.1 pmol/mL and the Cyclic AMP produced (pmol/mL), 3 ng/mL TSH [6] was 77.1 pmol/mL. The Cyclic AMP produced (pmol/mL), 3 ng/mL TSH, Experiment 1 [6] was 86.2 pmol/mL, the Cyclic AMP produced (pmol/mL), 3 ng/mL TSH, Experiment 2 [6] was 69.8 pmol/mL and the Cyclic AMP produced (pmol/mL), TSH 0.01 ng/mL [6] was 1.56 pmol/mL. It also gave a Cyclic AMP produced (pmol/mL), TSH 0.01 ng/mL, Experiment 1 [6] of 1.37 pmol/mL, a Cyclic AMP produced (pmol/mL), TSH 0.01 ng/mL, Experiment 2 [6] of 2.1 pmol/mL and a Cyclic AMP produced (pmol/mL), TSH 0.03 ng/mL [6] of 2.42 pmol/mL. It also gave a Cyclic AMP produced (pmol/mL), TSH 0.03 ng/mL, Experiment 1 [6] of 1.58 pmol/mL, a Cyclic AMP produced (pmol/mL), TSH 0.03 ng/mL, Experiment 2 [6] of 4.48 pmol/mL and a Cyclic AMP produced (pmol/mL), TSH 0.1 ng/mL [6] of 4.09 pmol/mL. It also gave a Cyclic AMP produced (pmol/mL), TSH 0.1 ng/mL, Experiment 1 [6] of 1.83 pmol/mL, a Cyclic AMP produced (pmol/mL), TSH 0.1 ng/mL, Experiment 2 [6] of 10.3 pmol/mL and a Cyclic AMP produced (pmol/mL), TSH 0.3 ng/mL [6] of 11.4 pmol/mL. The Cyclic AMP produced (pmol/mL), TSH 0.3 ng/mL, Experiment 1 (single determination) [6] was 3.2 pmol/mL.
